Laboratory results reported in patent publication US20090166224A1.

Experiments:
[1] = target: Haptoglobin in neuraminidase-treated serum (human) (UniProt P00738); experiment: neuraminidase-treated serum on M-LAC column, displacer fraction, LC-MS/MS; smaller rank = more abundant
[2] = target: Alpha-1-acid-glycoprotein in neuraminidase-treated serum (human) (UniProt P02763); experiment: as above
[3] = target: … ZONE PROTEIN (human) (UniProt P20742); experiment: human serum on M-LAC column, displacer fraction, extracted ion chromatogram of peptide … (so in the source)
Sequence of … ZONE PROTEIN (human) (P20742 26-1482 limits assumed): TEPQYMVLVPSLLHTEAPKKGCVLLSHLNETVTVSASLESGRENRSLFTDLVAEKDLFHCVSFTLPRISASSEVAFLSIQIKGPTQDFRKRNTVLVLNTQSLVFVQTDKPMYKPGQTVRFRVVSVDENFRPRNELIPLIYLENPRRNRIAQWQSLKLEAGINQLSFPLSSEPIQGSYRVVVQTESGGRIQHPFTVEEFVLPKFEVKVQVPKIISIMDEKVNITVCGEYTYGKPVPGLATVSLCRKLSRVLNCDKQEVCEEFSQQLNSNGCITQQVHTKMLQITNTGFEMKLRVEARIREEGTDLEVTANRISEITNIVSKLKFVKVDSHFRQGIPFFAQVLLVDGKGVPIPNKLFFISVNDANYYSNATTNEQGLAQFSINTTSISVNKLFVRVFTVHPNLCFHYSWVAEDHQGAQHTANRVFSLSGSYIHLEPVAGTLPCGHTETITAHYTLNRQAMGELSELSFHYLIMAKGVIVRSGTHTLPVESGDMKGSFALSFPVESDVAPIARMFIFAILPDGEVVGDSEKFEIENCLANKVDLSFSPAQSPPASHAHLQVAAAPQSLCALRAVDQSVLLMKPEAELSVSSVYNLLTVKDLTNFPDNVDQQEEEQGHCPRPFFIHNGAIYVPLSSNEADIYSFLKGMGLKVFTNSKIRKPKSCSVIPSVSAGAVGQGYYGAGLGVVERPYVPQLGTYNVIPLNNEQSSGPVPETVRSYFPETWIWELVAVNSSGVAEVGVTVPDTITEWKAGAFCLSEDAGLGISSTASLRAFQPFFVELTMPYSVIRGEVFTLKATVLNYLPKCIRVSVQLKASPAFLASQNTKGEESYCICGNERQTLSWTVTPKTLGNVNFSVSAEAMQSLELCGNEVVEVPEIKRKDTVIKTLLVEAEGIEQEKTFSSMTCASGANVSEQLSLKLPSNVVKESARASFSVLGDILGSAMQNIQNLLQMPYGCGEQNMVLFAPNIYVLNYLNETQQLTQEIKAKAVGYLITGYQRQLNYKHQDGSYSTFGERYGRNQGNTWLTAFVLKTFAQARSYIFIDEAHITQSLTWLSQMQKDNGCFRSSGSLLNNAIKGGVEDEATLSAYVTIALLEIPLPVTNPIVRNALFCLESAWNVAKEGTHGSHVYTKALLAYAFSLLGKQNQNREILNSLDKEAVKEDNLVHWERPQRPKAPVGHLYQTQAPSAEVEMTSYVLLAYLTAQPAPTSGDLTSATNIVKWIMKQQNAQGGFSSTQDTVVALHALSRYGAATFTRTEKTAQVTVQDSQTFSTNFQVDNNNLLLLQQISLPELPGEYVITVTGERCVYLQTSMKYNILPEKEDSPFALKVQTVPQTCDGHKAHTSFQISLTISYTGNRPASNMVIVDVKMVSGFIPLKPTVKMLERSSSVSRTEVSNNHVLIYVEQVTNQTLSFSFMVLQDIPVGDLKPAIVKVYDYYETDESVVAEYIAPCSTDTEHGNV

[4] = target: HAPTOGLOBIN-2 (human) (UniProt P00738); experiment: untreated sample on M-LAC column, displacer fraction, peak area of peptide …
[5] = target: Alpha-1-acid-glycoprotein (human) (UniProt P02763); experiment: as above
Sequence of Alpha-1-acid-glycoprotein (human) (P02763 19-201 limits assumed): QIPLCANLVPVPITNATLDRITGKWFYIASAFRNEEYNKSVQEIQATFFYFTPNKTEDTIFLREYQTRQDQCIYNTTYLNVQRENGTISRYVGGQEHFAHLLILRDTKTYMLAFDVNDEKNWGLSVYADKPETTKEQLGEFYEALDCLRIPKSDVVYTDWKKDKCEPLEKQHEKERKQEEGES

[6] = target: SERO… (human) (UniProt P02787); experiment: as above
[7] = target: ALPHA-2-HS-GLYCOPROTEIN (human) (UniProt P02765); experiment: as above
Sequence of UniProt P02765 (P02765 19-300 limits assumed, chain 1 of 2): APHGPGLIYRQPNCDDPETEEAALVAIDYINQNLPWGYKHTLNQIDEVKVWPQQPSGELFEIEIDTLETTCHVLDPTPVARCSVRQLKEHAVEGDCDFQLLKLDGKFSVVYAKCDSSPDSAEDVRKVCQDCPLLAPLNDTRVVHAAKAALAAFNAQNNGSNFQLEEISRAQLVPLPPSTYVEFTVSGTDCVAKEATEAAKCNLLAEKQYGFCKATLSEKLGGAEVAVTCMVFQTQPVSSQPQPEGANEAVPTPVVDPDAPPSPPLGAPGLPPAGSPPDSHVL
Sequence of UniProt P02765 (P02765 341-367 limits assumed, chain 2 of 2): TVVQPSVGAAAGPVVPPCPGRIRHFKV

[8] = target: Beta-2-glycoprotein (human) (UniProt P02749); experiment: as above
[9] = target: HAPTOGLOBIN-2 (human) (UniProt P00738); experiment: human serum on M-LAC column, displacer fraction, extracted ion chromatogram of peptide …
[10] = target: Alpha-1-acid-glycoprotein (human) (UniProt P02763); experiment: as above
[11] = target: SERO… (human) (UniProt P02787); experiment: as above
[12] = target: ALPHA-2-HS-GLYCOPROTEIN (human) (UniProt P02765); experiment: as above
[13] = target: Beta-2-glycoprotein (human) (UniProt P02749); experiment: as above
[14] = target: SERO… (human) (UniProt P02787); experiment: human serum on M-LAC column, displacer fraction, LC-MS/MS; smaller rank = more abundant
[15] = target: ALPHA-2-HS-GLYCOPROTEIN (human) (UniProt P02765); experiment: as above
[16] = target: CERULOPLASMIN (human) (UniProt P00450); experiment: as above
Sequence of UniProt P00450 (P00450 20-1065 limits assumed): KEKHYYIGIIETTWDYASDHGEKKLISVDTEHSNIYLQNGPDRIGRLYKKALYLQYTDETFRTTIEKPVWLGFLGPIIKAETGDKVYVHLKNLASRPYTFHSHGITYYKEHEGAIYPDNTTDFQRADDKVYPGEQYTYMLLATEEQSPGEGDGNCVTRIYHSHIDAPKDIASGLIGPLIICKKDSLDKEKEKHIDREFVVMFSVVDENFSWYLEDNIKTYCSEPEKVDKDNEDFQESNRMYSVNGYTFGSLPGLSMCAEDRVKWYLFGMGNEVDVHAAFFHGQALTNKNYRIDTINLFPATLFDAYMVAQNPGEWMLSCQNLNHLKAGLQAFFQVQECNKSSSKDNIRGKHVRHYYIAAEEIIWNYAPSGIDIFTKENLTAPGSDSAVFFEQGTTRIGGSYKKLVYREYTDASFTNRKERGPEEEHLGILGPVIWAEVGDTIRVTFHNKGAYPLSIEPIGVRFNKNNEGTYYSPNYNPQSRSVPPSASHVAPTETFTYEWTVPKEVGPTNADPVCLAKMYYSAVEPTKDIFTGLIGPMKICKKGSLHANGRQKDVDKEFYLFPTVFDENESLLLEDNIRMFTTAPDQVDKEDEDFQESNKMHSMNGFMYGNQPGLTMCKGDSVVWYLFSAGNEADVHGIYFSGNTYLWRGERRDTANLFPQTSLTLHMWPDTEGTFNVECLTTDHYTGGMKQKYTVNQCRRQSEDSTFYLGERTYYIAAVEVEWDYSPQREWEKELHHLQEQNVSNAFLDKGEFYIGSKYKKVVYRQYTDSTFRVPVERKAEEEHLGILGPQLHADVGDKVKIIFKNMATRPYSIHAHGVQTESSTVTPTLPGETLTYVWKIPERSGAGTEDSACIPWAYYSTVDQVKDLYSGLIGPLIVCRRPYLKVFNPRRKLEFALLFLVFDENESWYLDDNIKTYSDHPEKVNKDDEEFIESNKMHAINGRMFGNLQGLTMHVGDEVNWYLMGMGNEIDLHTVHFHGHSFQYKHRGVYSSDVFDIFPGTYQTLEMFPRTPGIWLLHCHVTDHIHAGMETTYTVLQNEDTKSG

[17] = target: Alpha-1-acid-glycoprotein in fucosidase-treated serum (human) (UniProt P02763); experiment: fucosidase-treated serum on M-LAC column, displacer fraction, extracted ion chromatogram of peptide …
Sequence of Alpha-1-acid-glycoprotein in fucosidase-treated serum (human) (P02763 19-201 limits assumed): as the sequence (P02763 19-201 limits assumed) above

[18] = target: Haptoglobin in fucosidase-treated serum (human) (UniProt P00738); experiment: as above
[19] = target: Apolipoprotein A-I in fucosidase-treated serum (human) (UniProt P02647); experiment: as above
Sequence of Apolipoprotein A-I in fucosidase-treated serum (human) (P02647 25-267 limits assumed): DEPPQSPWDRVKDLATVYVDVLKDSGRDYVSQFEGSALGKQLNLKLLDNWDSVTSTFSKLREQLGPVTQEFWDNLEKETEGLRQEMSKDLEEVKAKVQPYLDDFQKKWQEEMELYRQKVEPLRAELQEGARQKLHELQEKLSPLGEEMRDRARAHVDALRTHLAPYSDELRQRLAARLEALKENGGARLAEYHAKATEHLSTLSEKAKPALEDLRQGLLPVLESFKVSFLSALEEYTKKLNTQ

[20] = target: Ceruloplasmin in fucosidase-treated serum (human) (UniProt P00450); experiment: as above
Sequence of Ceruloplasmin in fucosidase-treated serum (human) (P00450 20-1065 limits assumed): as the sequence (P00450 20-1065 limits assumed) above

[21] = target: Haptoglobin in neuraminidase-treated serum (human) (UniProt P00738); experiment: neuraminidized sample on M-LAC column, displacer fraction, peak area of peptide …
[22] = target: Alpha-2HS-glycoprotein in neuraminidase-treated serum (human) (UniProt P02765); experiment: as above
Sequence of Alpha-2HS-glycoprotein in neuraminidase-treated serum (human) (P02765 19-300 limits assumed, chain 1 of 2): as the sequence (P02765 19-300 limits assumed, chain 1 of 2) above

[23] = target: Beta-2-glycoprotein in neuraminidase-treated serum (human) (UniProt P02749); experiment: as above
[24] = target: asialotransferrin (human) (UniProt P02787); experiment: as above
[25] = target: Alpha-1-acid-glycoprotein in neuraminidase-treated serum (human) (UniProt P02763); experiment: as above
[26] = target: Alpha-1-acid-glycoprotein in fucosidase-treated serum (human) (UniProt P02763); experiment: fucosidase-treated serum on M-LAC column, displacer fraction, LC-MS/MS; smaller rank = more abundant
[27] = target: Haptoglobin in fucosidase-treated serum (human) (UniProt P00738); experiment: as above
[28] = target: Apolipoprotein A-I in fucosidase-treated serum (human) (UniProt P02647); experiment: as above
[29] = target: Ceruloplasmin in fucosidase-treated serum (human) (UniProt P00450); experiment: as above
[30] = target: HAPTOGLOBIN-2 (human) (UniProt P00738); experiment: human serum on Con A/WGA/Jacalin column, lectin-specific displacer fraction, LC-MS/MS; grade = SEQUEST rank group (+ = ranks 1-5, ++++ = 16-20)
[31] = target: Haptoglobin in neuraminidase-treated serum (human) (UniProt P00738); experiment: neuraminidase-treated serum on M-LAC column, displacer fraction, extracted ion chromatogram of peptide …
[32] = target: Alpha-2HS-glycoprotein in neuraminidase-treated serum (human) (UniProt P02765); experiment: as above
[33] = target: Beta-2-glycoprotein in neuraminidase-treated serum (human) (UniProt P02749); experiment: as above
[34] = target: Alpha-1-acid-glycoprotein in neuraminidase-treated serum (human) (UniProt P02763); experiment: as above

Sequence of Alpha-1-acid-glycoprotein in neuraminidase-treated serum (human) (P02763 19-201 limits assumed): as the sequence (P02763 19-201 limits assumed) above

| Substance | SEQUEST rank in displacer fraction [1] | SEQUEST rank in displacer fraction [2] | peptide peak area in displacer fraction [3] [counts] | peptide peak area in displacer fraction [4] | peptide peak area in displacer fraction [5] | peptide peak area in displacer fraction [6] | peptide peak area in displacer fraction [7] | peptide peak area in displacer fraction [8] | peptide peak area in displacer fraction [9] [counts] | peptide peak area in displacer fraction [10] [counts] | peptide peak area in displacer fraction ([11]; peptide at M/Z 530.2) [counts] | peptide peak area in displacer fraction ([11]; peptide at M/Z 790.1) [counts] | peptide peak area in displacer fraction [12] [counts] | peptide peak area in displacer fraction [13] [counts] | SEQUEST rank in displacer fraction [14] | SEQUEST rank in displacer fraction [15] | SEQUEST rank in displacer fraction [16] | peptide peak area in displacer fraction [17] [counts] | peptide peak area in displacer fraction [18] [counts] | peptide peak area in displacer fraction [19] [counts] | also measured |
| --- | --- | --- | --- | --- | --- | --- | --- | --- | --- | --- | --- | --- | --- | --- | --- | --- | --- | --- | --- | --- | --- |
| wheat germ agglutinin (WGA), agarose-bound (from UniProt P10968 27-197) | 2 | 23 | 1.1e+07 | 236 | 129 | 8.1 | 1.7 | 1.8 | 2.36e+08 | 1.29e+08 | 7.7e+06 | 5e+06 | 1.7e+06 | 1.8e+06 | 19 | 81 | 8 | 5e+07 | 8.2e+07 | 1.6e+07 | peptide peak area in displacer fraction [20]: 1.1e+07 counts; peptide peak area in displacer fraction [21]: 163; peptide peak area in displacer fraction [22]: 0.9; peptide peak area in displacer fraction [23]: 0; peptide peak area in displacer fraction [24]: 1.6; peptide peak area in displacer fraction [25]: 0; SEQUEST rank in displacer fraction [26]: 9; SEQUEST rank in displacer fraction [27]: 2; SEQUEST rank in displacer fraction [28]: 24; SEQUEST rank in displacer fraction [29]: 28; SEQUEST ranking (relative abundance in the WGA displacement fraction) [30]: 1 to 5 rank; peptide peak area in displacer fraction [31]: 1.63e+08 counts; peptide peak area in displacer fraction [32]: 900000 counts; peptide peak area in displacer fraction [33]: 0 counts; peptide peak area in displacer fraction [34]: 0 counts |
| Jacalin lectin, agarose-bound (from UniProt P18670 1-133; P18671 1-20) | 9 | 27 | 0 | 10.1 | 9.7 | 20 | 4 | 2.6 | 1e+07 | 9.7e+06 | 1.9e+07 | 7e+06 | 4e+06 | 2.6e+06 | 2 | 14 | 24 | 1.7e+07 | 2.2e+07 | 4.3e+07 | peptide peak area in displacer fraction [20]: 6.2e+06 counts; peptide peak area in displacer fraction [21]: 12.6; peptide peak area in displacer fraction [22]: 7.4; peptide peak area in displacer fraction [23]: 3.8; peptide peak area in displacer fraction [24]: 28; peptide peak area in displacer fraction [25]: 12.3; SEQUEST rank in displacer fraction [26]: 19; SEQUEST rank in displacer fraction [27]: 7; SEQUEST rank in displacer fraction [28]: 5; SEQUEST rank in displacer fraction [29]: 6; SEQUEST ranking (relative abundance in the Jacalin displacement fraction) [30]: 11 to 15 rank; peptide peak area in displacer fraction [31]: 1.3e+07 counts; peptide peak area in displacer fraction [32]: 7.4e+06 counts; peptide peak area in displacer fraction [33]: 3.8e+06 counts; peptide peak area in displacer fraction [34]: 1.2e+07 counts |
| Concanavalin A (Con A), agarose-bound (from UniProt P02866 30-281) | 7 | 96 | 6.6e+06 | 39.3 | 9.2 | 23 | 2.6 | 3.5 | 3.9e+07 | 9.2e+06 | 2e+07 | 7.8e+06 | 2.6e+06 | 3.5e+06 | 2 | 32 | 14 | 1e+07 | 5.1e+07 | 1.2e+07 | peptide peak area in displacer fraction [20]: 9.8e+06 counts; peptide peak area in displacer fraction [21]: 46.9; peptide peak area in displacer fraction [22]: 2.6; peptide peak area in displacer fraction [23]: 8.4; peptide peak area in displacer fraction [24]: 36; peptide peak area in displacer fraction [25]: 10.7; SEQUEST rank in displacer fraction [26]: 38; SEQUEST rank in displacer fraction [27]: 5; SEQUEST rank in displacer fraction [28]: 12; SEQUEST rank in displacer fraction [29]: 8; SEQUEST ranking (relative abundance in the Con A displacement fraction) [30]: 6 to 10 rank; peptide peak area in displacer fraction [31]: 4.7e+07 counts; peptide peak area in displacer fraction [32]: 2.6e+06 counts; peptide peak area in displacer fraction [33]: 8.4e+06 counts; peptide peak area in displacer fraction [34]: 1.1e+07 counts |
